Paper PMC10036536, “Optimizing human α-galactosidase for treatment of Fabry disease” (Scientific Reports, 2023)

Molecular target: the molecule itself
Experiment: SEC; protein eluted from concanavalin A-Sepharose; Superdex 200 PG 26/60, 2.4 mM Na2HPO4, 17.6 mM NaH2PO4 (pH 6.0), 150 mM NaCl, 0.02% Tween-20

B1: recombinant human α-galactosidase A (GLA) (enzyme, UniProt P06280 32-429, looked up)
chain: LDNGLARTPTMGWLHWERFMCNLDCQEEPDSCISEKLFMEMAELMVSEGWKDAGYEYLCIDDCWMAPQRDSEGRLQADPQRFPHGIRQLANYVHSKGLKLGIYADVGNKTCAGFPGSFGYYDIDAQTFADWGVDLLKFDGCYCDSLENLADGYKHMSLALNRTGRSIVYSCEWPLYMWPFQKPNYTEIRQYCNHWRNFADIDDSWKSIKSILDWTSFNQERIVDVAGPGGWNDPDMLVIGNFGLSWNQQVTQMALWAIMAAPLFMSNDLRHISPQAKALLQDKDVIAINQDPLGKQGYQLRQGDNFEVWERPLSGLAWAVAMINRQEIGGPRSYTIAVASLGKGVACNPACFITQLLPVKRKLGFYEWTSRLRSHINPTGTVLLQLENTMQMSLKDLL
notes: α-galactosidase A, human, UniProt P06280; The methods say fractions of the homodimer were pooled; also called rhGLA
- stoichiometry N: 2
